Reference: article PMC10611767, “TudS desulfidases recycle 4-thiouridine-5’-monophosphate at a catalytic [4Fe-4S] cluster” (Communications Biology, 2023)

Columns and labels:
Test in all cases: purified protein
Settings in all cases: anaerobic, normalized to 4 Fe per protein
[1] = system: O=c1[nH]c(=S)ccn1[C@@H]1O[C@H](CO)[C@@H](O)[C@H]1O
[2] = system: O=c1[nH]c(=S)ccn1[C@@H]1O[C@H](COP(=O)(O)O)[C@@H](O)[C@H]1O
[3] = system: O=c1[nH]c(=S)ccn1[C@@H]1O[C@H](COP(=O)(O)OP(=O)(O)OP(=O)(O)O)[C@@H](O)[C@H]1O
O=c1[nH]ccc(=S)[nH]1 = system: O=c1[nH]ccc(=S)[nH]1
[4] = 100 mM MOPS/KOH pH 7.3, 30 °C, anaerobically purified
[5] = 100 mM MOPS/KOH pH 7.3, anaerobically purified

Substance TudS_A (uncultured bacterium) has a Km [1, 4] of 3100 ± 600 µM, a Vmax [1, 4] of 30.1 µmol/min/mg and a kcat [1, 4] of 8.8 ± 0.9 s⁻¹. For the same substance, the kcat/Km [1, 4] was 2880 M⁻¹ s⁻¹, the Km [2, 4] was 38 ± 13 µM and the Vmax [2, 4] was 1000 µmol/min/mg. The kcat [2, 4] was 293 ± 44 s⁻¹, the kcat/Km [2, 4] was 7.77e+06 M⁻¹ s⁻¹ and the Km [3, 4] was 100 ± 23 µM. It also gave a Vmax [3, 4] of 234 µmol/min/mg, a kcat [3, 4] of 68.6 ± 3.4 s⁻¹ and a kcat/Km [3, 4] of 685000 M⁻¹ s⁻¹. The Km (O=c1[nH]ccc(=S)[nH]1; [4]) was 240 ± 30 µM, the Vmax (O=c1[nH]ccc(=S)[nH]1; [4]) was 2.4 µmol/min/mg and the kcat (O=c1[nH]ccc(=S)[nH]1; [4]) was 0.7 ± 0.05 s⁻¹. It also gave a kcat/Km (O=c1[nH]ccc(=S)[nH]1; [4]) of 2900 M⁻¹ s⁻¹.
Work on TudS_P (Pseudomonas sp. MIL19) yielded a Km [1, 5] of 200 ± 90 µM, a Vmax [1, 5] of 64.3 µmol/min/mg and a kcat [1, 5] of 19.9 ± 4.7 s⁻¹. For the same substance, the kcat/Km [1, 5] was 103000 M⁻¹ s⁻¹, the Km [2, 5] was 20 ± 7 µM and the Vmax [2, 5] was 447 µmol/min/mg. It also gave a kcat [2, 5] of 138 ± 16 s⁻¹, a kcat/Km [2, 5] of 7.63e+06 M⁻¹ s⁻¹ and a Km [3, 5] of 117 ± 26 µM. It also gave a Vmax [3, 5] of 168 µmol/min/mg, a kcat [3, 5] of 52.3 ± 2.4 s⁻¹ and a kcat/Km [3, 5] of 448000 M⁻¹ s⁻¹. For the same substance, the Km (O=c1[nH]ccc(=S)[nH]1; [5]) was 1490 ± 270 µM, the Vmax (O=c1[nH]ccc(=S)[nH]1; [5]) was 15.9 µmol/min/mg and the kcat (O=c1[nH]ccc(=S)[nH]1; [5]) was 4.93 ± 0.43 s⁻¹. It also gave a kcat/Km (O=c1[nH]ccc(=S)[nH]1; [5]) of 3270 M⁻¹ s⁻¹.
